Results from the DeepSol protein solubility set.

Test: soluble on expression in E. coli; label from the status in PepcDB or PDB records

Sequence	soluble on expression in E. coli
MANHKPEIVITYCTQCQWLLRAAWLAQELLSTFADDLGRVALEPGTGGIFRITCNGVQIWERKADGGFPEAKVLKQRVRDQVDPQRDLGHNDRLEHHHHHH	soluble
MSRDPTYTINEHDLSFADGRFYVTFKADKSSETVRLNSSCLGNTIIKKLQVEDDNTMHDFVKPKVTTQQAFGLAQQVKELDLQLKDPKSDLWGKIKFNNKAMLVEYANKEMSSAIAQSAEQILLQVKSIDDERYSKFEQTLNGIKQTVKSESVESARTQLASMFDSRISGLDGKYSRLSQTIDSLSSRLDDGVGNYSTLSQKVSGIDLRVSNAANDVSRLSQTAQGLQSQITNANQNYSSLSQTVQGLQTTVRDNQSNATSRINQLSDLISTKVSKGDVETTIAQSYDKIAFAIRDKLPASKMSGSEIISAINLDRSGVKITGKNITLDGNSYISNAVIKDAHIANMDAGKINTGYLNANRIATEAITGEKIKMDYAFFNKLTANEGYFRTLFAKDIFATSVQSVTLSASKITGGVLAATNGASQWDLNNANMTFNRDATINFNSKNNALVRKDGTHTAFVHFSNATPKGYRGSALYASIGITSSGDGIDSASSGRFAGLRSFRYATGYNHTAAVDQTELYGDNVLIADDFNINRGFKFRPDKMEKVLDMNDLYAAVVALGRCWGHLANVGWNT	not soluble
MGSDKIHHHHHHMSISPNPNIAEIAALFGETSRAAILTSLLDGRLHTASDLAYRAGITPQTASFHLGKLAEGGLVSVEKHGRHRYYQLANGEVASLLESFLVISPQPEVKSLKQSAQMVMLQKARTCYDHLAGKLGVGITDSMLDSGYLKKDGKEFVLTEAGVQFVINFGLDLESIKKKRRSLSHACLDWSERSYHLAGALGNQLMQHFFDLGWITPLPGIRAVKVTDQGKAGFKQYFNISL	not soluble
MGSDKIHHHHHHMLRVKNLRLKYPNGDRKIFDNLNLEIKNKEKVLLLGPSGSGKSTLLNVLSGIVPNLIELPMKYDELNIDHDSGVIFQDPDNQFCMPKVYEELAFVLENRNIPRSEMDQEIENALKSVDLNVTHKTYVNNLSGGMKQKLAIVETILQKSKTLFLDEPTAMLDVKATEDLWKKLINLWKDQTVLIVEHKVEHIWQHVDRVLLLNYDGEIVADDTPEQILDHYEALLTEYGVWHPRAWHSAPRPIPLPNQTKNLLFHFDDGQIIRGKKTLFSSKELKLYSGEWLTITGKNGAGKTSLLEAMLQLIKYEGDMFYRDQLLSKIKQAAKHMYLVYQNPELQFITNSVYDEVYIHYNHLDPKHANDETMDLLKLLHLDQVKDHHPFEISTGQKRRLSVATALSSKAEIILLDEPTFGLDSHNTFQLIKLFQERVNQGQTIIMVTHDPEIIKRYPTRRLRVEDGCLKEMEGEHIV	not soluble
TVDKRYLNDEHFIDPELVSQRAAPLTEADKQILADKSLGYRVLNLTVDTYNDATTSRWHRSIGGYHAAKLQRYQDLIEHQLSKGNREVVNMLNTKYIIVPGENNRPSPMSNPDAYGPAWPAGSIRWVGNANEEMMALDSNRLTRDIAVVDERFSSESLKRLPALTDSTASISLKEYAPNRQVYEAVSTQPMLGIFSEIYYPHGWTATIDNQAVPIIRANYILRALEVPAGRHKIEFRFDPKSLHITEAIAKT	not soluble
SREAVTVQVGGFANYVGSYFWNFQDELLGLADDPDADPVFKNAALDMDVLYRSGETHQGVATYCPRLVSVDSRGSLGSLSSSGNLGQSSTAADQLNVATWSGNVTRSVSKPHGRNLFLQSLVEEGQNPSTSNGGSNSQKSVEYKDLIECLENGINFWTDYSKVHYHPQSLYELYGSWTDFDKFDNYGSAQEVVSDWSQIEEMNERLRFFVEECDHIQGIQFIVDDSGGFSSVAAQFLENIADDYTNTLVLLYCVRDPMTLGPSRRNQRESIMRALHDAVSFSKLSSFCNLMVPIGPPSLSRSCMSPYLYIQDEKPFHASAVCAAAIHSITVPFRLQRTGPSSDLAHSSGNLDIGELVHILSDQGRQNMVTALDVAMPAPSLTDRDAMGNIEMKLHSLTPEISDEDEDPYSVESLVVHGALDRGGQRTSISQVKDSVCSVYEARETKPKFSHLSASLCPLPVPLPFPSIFRGNIGRHGEILSDHTEESQPKGSLDIESIPMAARLRSSSAVLPFIERRSGSLQKHGVARGAIGSLVLHDWGFGREEVEDMAEHLAKLLGPFHPEMDLTSDSD	soluble
MTRTPFSRRRFLQLSGGLALAGVSLPLWAHDMADMAGGDAHPALRLPEPYKIKLAINKSAVCLAPVAVAEQQKIFSKYNLDVEFVNFGNSTDVLLEAIATGKADAGVGMALRWLKALEQGFDVKLTAGTHGGCLNLLTAKDSPFGGLESLKGQTIGVTDMAGPDKNFFAILLKRHGIDPISDVQWKVYPADLLSVALDKREIAAISGSEPFSYRLLETGKYQLIASNMTGDYANLSCCVLGVSGSLARDHKPAAAALTQAILEAHSYAAAHPESVAQSFLAHALNTSEAEVSGILHGQGHGHHAVGEAFVKELTQYAVDLQRVQVIKPGTDPHQFAESIYANVFA	not soluble
MSDDEIGDGARAFNQLIQALSLSIETETAVRTFTEMLVSELDVHQLTEQALALLLQHTGADGGAILIEVDGEIRVAASQGIGSAHTLANNDRVRSALRTERRHRVQLPEDLVVDGMLAQFRPKEVIIDPVRHKEVVLGAVVLASGQGFSAEDRNRLDVFERGLALALHNALLYDRLQTLAALDPLEHHHHHH	not soluble
GPGSRVRDKKDMDASELELRRVQGSLNKLTDKNFDAVVEEALSPDLVLNPLVLKGAVDIIFNKAMAEPVFSGIYAQLCQRIKVYEQDLVAEAAENPTSELGQLMAAVQAGDEDQKNVNGRVRNALVKRCQEFHDSFVKQPPPRNAEAEEQLRKRNMANIKFVGELYMRSLISHRVILAVCSTALVLGFIPSPKLVTTDADLEMMVSLMNVIGKRFDENAGMALNHVPKDAAAAAHPHDTIWRALNSSMNDPRFSRRIRFLIQNLLEWRNDGWKPKESPAQGSSGGSADDSNNTT	not soluble
MENTVLNLDSDVIHACEAIFQPIRLVYTHAQTPDVSGVSMLEKIQQILPQIAKNAESAEQLRRVPDENIKLLKEIGLHRAFQPKVYGGLEMSLPDFANCIVTLAGACAGTAWAFSLLCTHSHQIAMFSKQLQDEIWLKDPDATASSSIAPFGKVEEVEGGIILNGDYGWSSGCDHAEYAIVGFNRFDADGNKIYSFGVIPRSDYEIVDNWYAQAIKSSGSKMLKLVNVFIPEYRISKAKDMMEGKSAGFGLYPDSKIFYTPYRPYFASGFSAVSLGIAERMIEAFKEKQRNRVRAYTGANVGLATPALMRIAESTHQVAAARALLEKTWEDHRIHGLNHQYPNKETLAFWRTNQAYAVKMCIEAVDRLMAAAGATSFMDNSELQRLFRDAHMTGAHAYTDYDVCAQILGRELMGMEPDPTMV	soluble
MGPGTTVRWRRRVSGWRRAGCAALIAGAVALPLSGAARPEIPAPPPAALAAPTAATLDKAYAANRANAAEASRMAADHGDRHRAAADRAMADRSRRLLAFDGRGTGLATEVFGDLARADRVAVLVPGSDTGLDTYGRFRATALALHRQLVAEAPAGTRTAVVAWLGYETPGTVSTTVATTDRADRAAPELRALVGDLRRITGPGTRLALLCHSYGSVVCARAADGLEVADIALVGSPGTGADTAAGLHSEARVWAGRGAEDWVEHVPHVSADLFGTTVGFGTDPVSPAFGARVFDAGDGGHSDYFDPGSRSLTNLARIALGETTEVTHALEHHHHHH	not soluble
MKSHVTDLTETLSSMEISRLEQQLTDFEAKKGSQIALLIIPTTQPETIEQYSIQVAEVWKLGRKGIDDGVLLLVAKNDRTLRIETGYGLEGVLPDALARRIIDEIIVPKFRQGHFFGGLQAGVEQIISIIEGETLPESLEHHHHHH	not soluble
MGSDKIHHHHHHMTRTIVIDPVTRIEGHAKISVFLDDQGNAEAARFHVVEYRGFEKFCEGRPFTEMAGITARICGICPVSHLLAAAKTGDKILAVQIPPAAENLRRLINLAQIIQSHALSFFHLSSPDFLLGWDSDPARRNLFGLIAADPETARAGIRLRQFGQQLIEWLGGRKIHAAWAVPGGVRSLLSQEGMVWIRDRLPAELATVRATLDRFKRLLDREFREETAVFGDFPSLFMGLVADNGDWEHYGGHLRFVDSQGRIIADRLREDDYASFLGEAVEPWSYLKFPYYKPWGYPEGMYRVGPLARLNVCDRIGTAGAEAERQELRDRAGGTVTSSFLYHYARLVEILASLEKIAEMVEDPNLQTGFLRSQAGVNCLEAIGVSEAPRGTLFHHYRVDSHGKIERVNLIIATGQNNLAMNRTVTQIAQHYIRHGEVQESFLNRVEAGIRCFDPCLSCSTHTAGQMPLKIEIFDSRGELYQCLCRDL	not soluble
MGSDKIHHHHHHMTDCADAQGLIAKITGVCFNHQLNIIKNSEFVDNAQGRFFMRTELEGHFHCEQLLQDLRQVLPAQNHMTLVSAGKKRIVILVTKEAHCLGDLLMKAYYGGLNVEIAAVVGNHDVLRELVEKFDIPFHLVSHEGLDRIQHEQALLAAVSQYSPDYLVLAKYMRVLTPDFVAEYPNRILNIHHSFLPAFIGAAPYRQAWERGVKIIGATAHFVNNCLDEGPIIKQDVIPVDHSYSALEMAKAGRDVEKSVLSKALQLVLNEQVVVYGNKTIVF	not soluble
KFLHEISLVLQTSVDLDEVLSVVMTAITAGKGFGMNRAFLLLTDKERKHLRGYLGVGPRNYGEAWFIWDEISRDDFTLKEMAKNFYQTKFTSEKQKFHDILENLTIPLSEHDHILVRALREKKPLLVENAFHNPDCDYSLTQTLGVDTFLITPLVSRNRRIGVIISDNCVTHKPITPQDVQSLETFAFPVAFAIERASLYERLQEE	not soluble
MSLTTITLRSAELFDVYLTFRQPMQTAISILSKRRTTILRLTDQEGRIGYGEGVAFETPWYTAETQDSLRALSPLLYRLLAAAPLSSPAAVAARFQPIKGNQMAKAMFDGAVHELFAQAEQTSLAAYLGGDENRSIPCGKALGRSSAEQTVEAVGQALNDGFERIKLKLAPTDTAVLEQVRKSFPGAPLMFDANGSFQVADLPLLQEWDTFSMLMMEQPFPADDWLSHQHAASLLKTPLCLDESIQTTQDALLMRTLQAGQIINIKPARLGGLTAALDVRSISPSYWLGGMFESGIGRRQTLAFATLPGLAYPIDMSGTDQYFIEDLLEQDYIVENGSIRYAEHSVSQERLERLAVSTKKLEGHHHHHH	soluble
MSINGISGASPLVALQGPSASQRPEPVSSTDRAQAPAFSERLGSALEGLAKSQTEAAEKASAFERGEGGNLAEVMVSQQVSSLGFQLALNVRNKALGAYRDIMNMPV	not soluble
MDLVKVDDDVVREMEIRRQQHSKKYDRKFEELVKSMSEAHVEPEKMKIPFSRKPTEQETNNLREEWEKEYAALCTSGRTLARPNPNSSIFSKILAQGSPSSAKAGTTRSTPRTSKPPSADENIIFGQKLPETPAPKLLCPPRASPGSSRRLSIFVENLPENHAEIVRGTIFAGREAKIMQNDPENVPSTSTYGEPIRPYLLFARYISLEKGLLDDKNRYKSATDPRFREFLKENIKYKVKQSIKHRTSSEACAQILNYFKTLLQKQEVQVLGGYAPVLQLKTNKDIEYASLCIVHNYVILAERDESLIPLISSHITRLSVFYGYIEQVFCIILLSRSALLRQHPEECMVKFLATSMNPSSPDAIKKWSRQKAHIILFCSVFTKNAYCFSKGFKLKLTDEILWKYVDASTAHILEIPRGSFILWQLITTCKPRLQVDKERWIQLLLNIKFKIIPELDLDSFDGDEAMLMQLKQTIDELLHP	not soluble
MSLEGGKGPRLRDFLSGSLATWALGLAGLVGEAEDSEGEPLWLEKRFLRLSDGALLLRVLGIIAPSSRGGPRMLRGLDGPAAWRVWNLNHLWGRLRDFYQEELQLLILSPPPDLQTLGFDPLSEEAVEQLEGVLRLLLGASVQCEHRELFIRHIQGLSLEVQSELAAAIQEVTQPGAGVVLALSGPDPGELAPAELEMLSRSLMGTLSKLARERDLGAQRLAELLLEREPLCLRPEAPSREGHHHHHH	soluble
